# Assay results from US10724034B2, “Genetic encoding of chemical post-translational modification for phage-displayed libraries” (THE GOVERNORS OF THE UNIVERSITY OF ALBERTA, priority 2014, dated 2020).
# Ends that are not written are not given here. SA = 4-(aminooxymethyl)benzenesulfonamide joined by oxime ligation to the periodate-oxidised N-terminal serine; Glu = glucose (not glutamate); Gal = galactose; Rha = rhamnose
# Tests used:
# human Galectin-3 = human Galectin-3 (Homo sapiens, UniProt P17931); test: ELISA-like competition assay: inhibition of HRP-Lactose binding to surface-immobilized Galectin-3; conditions: for Times more potent than MeGal at inhibiting HRP-Lac binding to Galectin-3: versus MeGal
# human Galectin-3, sequence (P17931 whole entry, the tested form may be a part): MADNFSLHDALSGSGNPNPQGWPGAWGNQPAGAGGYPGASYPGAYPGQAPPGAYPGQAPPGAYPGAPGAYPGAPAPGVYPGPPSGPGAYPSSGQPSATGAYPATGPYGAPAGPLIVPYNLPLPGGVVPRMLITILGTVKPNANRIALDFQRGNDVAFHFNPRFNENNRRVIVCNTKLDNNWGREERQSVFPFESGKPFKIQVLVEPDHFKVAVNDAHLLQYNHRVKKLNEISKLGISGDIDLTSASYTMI
# From the text: Using an ELISA-like competition assay (FIGS. 12, 13), the binding activity of these glycopeptides to carbohydrate recognition domain (CRD) of the human Galectin-3 and their ability to compete with binding of Lactose-conjugated horseradish peroxidase (HRP), were validated (FIG. 12). As references, we used known Gal3 ligands, such as lactose, Methyl-β-D-galactopiranoside (MeGal) and tetrasaccharide Lacto-N-Tetraose (LNT).
# FIG. 12 illustrates an evaluation of activity of hits identified from genetically-encoded libraries of glycopeptides against […]. The assay measures that inhibitory constant (denoted as Effective concentrations of half-maximal response or EC50) of compounds in the inhibition of the interaction between soluble HRP-Lactose and surface-immobilized Galectin-3.
# The competitive activity is quantified as decrease in color development by HRP-lac conjugate bound to Galectin-3 coated at 10 μg/ml concentration on polystyrene 96-well plates.
# human Galectin-3 protein [1] = target: T1, human Galectin-3 protein (human, UniProt P17931 2-250, limits assumed); test: ELISA-like competition with HRP-Lactose on Galectin-3 coated wells; reference MeGal
# T1 construct: also called Gal3
# T1 sequence (P17931 2-250 limits assumed): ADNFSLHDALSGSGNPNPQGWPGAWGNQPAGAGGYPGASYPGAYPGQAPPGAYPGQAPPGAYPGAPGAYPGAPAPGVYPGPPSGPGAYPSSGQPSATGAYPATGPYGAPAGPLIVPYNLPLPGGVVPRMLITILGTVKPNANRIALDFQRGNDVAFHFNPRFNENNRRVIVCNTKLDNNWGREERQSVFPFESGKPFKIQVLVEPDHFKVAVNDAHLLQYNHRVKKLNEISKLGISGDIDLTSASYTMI
# human Galectin-3 protein [2] = target: T1, human Galectin-3 protein; test: ELISA-like competition with HRP-Lac on Galectin-3 coated plates; reference MeGal
# human Galectin-3 protein [3] = target: T1, human Galectin-3 protein; test: ELISA-like competition with HRP-Lac on Galectin-3 coated plates; reference lactose
# [4] = target: T2, Bovine carbonic anhydrase II (bovine, UniProt P00921 2-260); test: ITC, replicate [row SA-TRPA, left panel]
# T2 construct: Commercial protein; also called BCA
# T2 sequence (P00921 2-260 limits assumed): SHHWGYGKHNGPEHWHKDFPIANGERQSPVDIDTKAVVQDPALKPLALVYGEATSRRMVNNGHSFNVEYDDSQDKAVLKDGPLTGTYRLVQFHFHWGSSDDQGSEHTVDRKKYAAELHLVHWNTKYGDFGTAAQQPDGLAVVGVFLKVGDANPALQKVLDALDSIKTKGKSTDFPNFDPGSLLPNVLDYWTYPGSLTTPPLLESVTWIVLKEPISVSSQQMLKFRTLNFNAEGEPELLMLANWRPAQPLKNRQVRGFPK
# [5] = target: T2, Bovine carbonic anhydrase II; test: ITC, replicate [row SA-TRPA, middle panel]
# Protocol: (§1) FIG. 9 provides additional replicates of raw ITC data of sulfonamide-peptide (SA-XXXX) binding to carbonic anhydrase. Raw data obtained for 30 injections of ligands (20-95 μM) into a solution of carbonic anhydrase (2.5-12 μM) at 4-min intervals and 30° C. is shown.
# [6] = target: T2, Bovine carbonic anhydrase II; test: ITC, replicate [row SA-TRPA, right panel]
# Protocol: as §1
# [7] = target: T2, Bovine carbonic anhydrase II; test: ITC, replicate [row SA-GGGG, middle panel]
# Protocol: as §1
# [8] = target: T2, Bovine carbonic anhydrase II; test: ITC, replicate [row SA-GGGG, right panel]
# [9] = target: T2, Bovine carbonic anhydrase II; test: isothermal titration calorimetry, 30 C, single binding site model; control peptide SA-GGGG (SEQ ID NO:101)
# Protocol: as §1
# [10] = target: T2, Bovine carbonic anhydrase II; test: ITC, replicate [row SA-WIVP, right panel]
# Protocol: as §1
# [11] = target: T2, Bovine carbonic anhydrase II; test: isothermal titration calorimetry; reference SA-GGGG
# Protocol: as §1
# [12] = target: T2, Bovine carbonic anhydrase II; test: isothermal titration calorimetry, 30 C, single binding site model; selected peptide SA-WIVP (SEQ ID NO:26)
# Protocol: as §1
# [13] = target: T2, Bovine carbonic anhydrase II; test: ITC, replicate [row SA-WIVP, middle panel]
# Protocol: as §1
# human Galectin-3 protein [14] = target: T1, human Galectin-3 protein; test: competition ELISA: HRP-Lactose binding to plate-coated Galectin-3 [upper left panel]
# Summary of the method: (§2)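 Half-maximal inhibitory concentrations came from competition curves in an ELISA-like assay in which test molecules competed against a lactose-conjugated horseradish peroxidase probe for human Galectin-3. The carbohydrate recognition domain of the protein was coated on polystyrene 96-well plates at 10 μg/ml, and less colour development meant competition.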
# human Galectin-3 protein [15] = target: T1, human Galectin-3 protein; test: competition ELISA: HRP-Lactose binding to plate-coated Galectin-3 [lower left panel]
# Summary of the method: as §2
# human Galectin-3 protein [16] = target: T1, human Galectin-3 protein; test: ELISA-like competition with HRP-Lac on immobilised Galectin-3; reference lactose
# Summary of the method: (§3)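 Each value expresses inhibition as a fold difference relative to a known Galectin-3 reference ligand run alongside in the same assay. The ELISA-like assay used polystyrene 96-well plates coated at 10 μg/ml with the carbohydrate recognition domain of human Galectin-3. Test molecules competed with a bound lactose-conjugated horseradish peroxidase probe, and reduced colour development indicated competition.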
# human Galectin-3 protein [17] = target: T1, human Galectin-3 protein; test: competition ELISA: HRP-Lactose binding to plate-coated Galectin-3 [upper right panel]
# Summary of the method: as §2
# human Galectin-3 protein [18] = target: T1, human Galectin-3 protein; test: ELISA-like competition with HRP-Lac on immobilised Galectin-3; reference Lacto-N-Tetraose
# Summary of the method: as §3
# human Galectin-3 protein [19] = target: T1, human Galectin-3 protein; test: competition ELISA: HRP-Lactose binding to plate-coated Galectin-3 [lower right panel]
# Summary of the method: as §2
# human Galectin-3 protein [20] = target: T1, human Galectin-3 protein; test: ELISA-like competition with HRP-Lac on immobilised Galectin-3; reference MeGal
# Summary of the method: as §3
# human Galectin-3 protein [21] = target: T1, human Galectin-3 protein; test: ELISA-like competition: inhibition of soluble HRP-Lactose binding to immobilised Galectin-3
# Summary of the method: as §2
molecule,measurement,setting,value
"Gal-PAPT: Galactose modified glycopeptide, SEQ ID NO:105",EC50,"human Galectin-3; FIG. 12, read-out: EC50, inhibition of interaction between soluble HRP-Lactose and surface-immobilized Galectin-3",14 µM
Glu-SIYG (glucose-modified tetramer peptide),fold higher potency than MeGal,human Galectin-3 protein [1],10 fold
"Glu-SIYG: combination of glucose and tetramer peptide, SEQ ID NO:106 (also: residue 1 modified with glucose, attachment not given here)",Times more potent than MeGal at inhibiting HRP-Lac binding to Galectin-3,human Galectin-3,10 times
Rha-IWVR (rhamnose-peptide conjugate),fold more potent inhibitor than MeGal,human Galectin-3 protein [2],400 fold
same,fold better than Lactose control,human Galectin-3 protein [3],10 fold
"Rha-IWVR: Rhamnose-peptide conjugate, SEQ ID NO:108 (also: residue 1 conjugated with rhamnose, attachment not given here)",Potency in HRP-Lac competition compared in words with a control,"human Galectin-3; comparison with Lactose, MeGal or LNT",in the same order of the LNT
same,Times better than Lactose at inhibiting HRP-Lac binding to Galectin-3,human Galectin-3; versus Lactose,10 times
same,Times more potent than MeGal at inhibiting HRP-Lac binding to Galectin-3,human Galectin-3,400 times
"{SA}-TRPA-NH2 (also: N-terminal SA cap oxime-linked, made from oxidised N-terminal Ser) [SA-TRPA]",Kd,[4],0.033 µM
same,Kd,[5],0.031 µM
same,Kd,[6],0.038 µM
"{SA}-GGGG-NH2 (also: N-terminal SA cap oxime-linked, made from oxidised N-terminal Ser, Control peptide in ITC; also called control peptide SA-GGGG) [SA-GGGG (control sulfonamide-modified peptide)]",Kd,[7],0.13 µM
same,Kd,[8],0.14 µM
same,Kd,[9],0.15 µM
"{SA}-WIVP-NH2 (also: N-terminal SA cap oxime-linked, made from oxidised N-terminal Ser, Synthetic conjugate made from the peptide S-WIVP; The N-terminal Ser is turned into the oxime-linked sulfonamide; also called sulfonamide-peptide; SA-XXXX) [SA-WIVP (sulfonamide-modified peptide)]",Kd,[10],0.006 µM
same,fold stronger affinity than control peptide SA-GGGG,[11],30 fold
same,Kd,[12],0.005 µM
same,Kd,[13],0.009 µM
Rha-PQLP (not fully specified; printed as Rha-PQLP) [Rha-PQLP],IC50 (read off the curve),human Galectin-3 protein [14],~1000 µM
"Gal-PAPT (also: exact galactose derivative not given here, Synthetic glycan-peptide conjugate; also called glycopeptide Gal-PAPT) [Gal-PAPT (galactose-modified glycopeptide)]",IC50 (read off the curve),human Galectin-3 protein [15],~20 µM
same,fold better inhibition than Lactose,human Galectin-3 protein [16],30 fold
same,IC50 (read off the curve),human Galectin-3 protein [17],~20 µM
same,fold better inhibition than LNT,human Galectin-3 protein [18],5 fold
same,IC50 (read off the curve),human Galectin-3 protein [19],~20 µM
same,fold better inhibition than MeGal,human Galectin-3 protein [20],> 1500 fold
same,EC50,human Galectin-3 protein [21],14 µM
